{"source": "patent US9828641B2", "about": "“Systemic genotoxicity as blood marker for allergic inflammation” (The Regents of the University of California, priority 2013, dated 2017)", "molecules": {"B1": {"name": "IL-β: Recombinant mouse IL-1β (Sigma), injected via the tail vein at 100 ng/mouse (protein, UniProt P10749 118-269, looked up)", "Interleukin-1 beta": "VPIRQLHYRLRDEQQKSLVLSDPYELKALHLNGQNINQQVIFSMSFVQGEPSNDKIPVALGLKGKNLYLSCVMKDGTPTLQLESVDPKQYPKKKMEKRFVFNKIEVKSKVEFESAEFPNWYISTSQAEHKPVFLGNNSGQDIIDFTMESVSS"}}, "key": {"[1]": {"test_system": "normochromatic erythrocytes", "test": "In vivo micronucleus assay", "settings": "wildtype mice, 48 hours post-injection", "quoted_text": "Micronuclei (MN) formation was determined in peripheral blood erythrocytes to assess chromosomal instability. Similar to a previously proposed method (28), 3 μl of whole blood was spread on a microscope slide and stained in Modified Wright-Giemsa solution (Sigma-Aldrich, St. Louis, Mo.). MN were counted and scored with an Olympus Ax70 (Tokyo, Japan) at 100× following previously proposed criteria (29). At least 4000 mature erythrocytes were counted per mouse, and the frequency of MN formation was calculated as number of micronucleated erythrocytes per 1000 normochromatic erythrocytes.\nMicronucleus formation was determined in normochromatic erythrocytes as micronucleated normochromatic erythrocytes per 1000 normochromatic erythrocytes as described previously (1, 8).\nMouse TNF-α (Sigma) and/or mouse IL-1β (Sigma) were injected via the tail vein at 500 ng/mouse and 100 ng/mouse, respectively, dissolved in saline. Control animals received vehicle only. Peripheral blood was collected at 1 hr, 2 hrs, 4 hrs, and 24 hrs after injection for genotoxicity assays."}, "peripheral leukocytes [2]": {"test_system": "peripheral leukocytes", "test": "Alkaline comet assay with and without hOgg1 incubation", "format": "in vivo", "settings": "wildtype mice, single tail vein injection; for Time of maximum DNA damage to peripheral leukocytes: TNF-α 500 ng or IL-β 100 ng alone; for Time to repair of DNA damage in peripheral leukocytes: TNF-α 500 ng/mouse or IL-β 100 ng/mouse alone", "experimental": "Frozen blood was further diluted 1:15 in PBS before further preparation.\n(§1) The enzyme hOgg1-modified comet assay was used for determination of oxidative DNA damage (25). Following lysis, samples were washed in an enzyme wash buffer (40 mM HEPES, 0.1M KCl, 0.5 mM EDTA, 0.2 mg/ml BSA, pH 8.0) then incubated at 37° C. for 10 min in either control (buffer with no hOGG1) or enzyme treated (buffer with hOGG1) solutions according to the manufacturer's recommendations. (New England Biolabs, Ipswich, Mass.). Both control and enzyme treated gels were then placed in electrophoresis buffer and processed identically to the alkaline comet assay.\nThe enzyme hOgg1-modified comet assay was used and carried out identically as previously described (1).\nas §1, with “For determination of oxidative DNA damage the” for “The”, “(5). After lysis in the alkaline comet assay,” for “for determination of oxidative DNA damage (25). Following lysis,”, “recommendations” for “recommendations.”\nControl animals received vehicle only."}, "peripheral leukocytes [3]": {"test_system": "peripheral leukocytes", "test": "γ-H2AX immunofluorescence (DNA double strand breaks)", "format": "in vivo, mice", "settings": "3% DSS", "quoted_text": "Peripheral blood was incubated in Buffer EL (Qiagen, Valencia, Calif.) on ice to remove erythrocytes. Samples were then processed on coverslips essentially as described elsewhere (26). […] Coverslips were mounted with [sequence] with 4,6-diamidino-2-phenylindole (Vector Laboratories, Burlingame, Calif.). Images were captured with CytoVision® (Applied Imaging Corporation, San Jose, Calif.) connected to a Zeiss Axioplan 2 microscope. At least 125 cells were counted and cells with more than four distinct foci in the nucleus were considered positive for γ-H2AX (26). Apoptotic cells, which are distinguishable due to presence of 10-fold the number of nuclear foci in damaged cells (27), were not included in analyses.\nPeripheral blood and splenocytes were incubated in Buffer EL (Qiagen, Valencia, Calif.) on ice to remove erythrocytes. […] Samples were then processed on coverslips as described elsewhere (6). Briefly, after permeabilization and blocking, cells were incubated with mouse anti-phospho-Histone H2A.X S139(P) (Upstate, Temecula, Calif.) at 1:400 followed by FITC-conjugated anti-mouse IgG (Jackson ImmunoResearch, West Grove, Pa.) at 1:200. Coverslips were mounted with [sequence] with 4,6-diamidino-2-phenylindole (Vector Laboratories, Burlingame, Calif.). […] At least 125 cells were counted and cells with more than four distinct foci in the nucleus were considered positive (6). […]"}, "[4]": {"test_system": "TNF-α, MCP-1, IFN-γ, TGF-β transcripts", "test": "Quantitative real-time PCR of cytokines in peripheral blood", "format": "in vivo, mice", "settings": "3% DSS, particularly after the first cycle", "experimental": "Total RNA was isolated using QiaAmp RNA Blood Mini Kit (Qiagen) according to manufacturer's instructions. 25 ng/μl of total RNA was used for reverse transcription using OligodT (Invitrogen) and Superscript III Reverse Transcriptase (Invitrogen). 10 ng/μl of cDNA was used for quantitative real time PCR using Taqman Gene Expression Assays (Applied Biosystems, Foster City, Calif. p/n 4331182) for Tbp (TATA binding protein), TNF-α (tumor necrosis factor α), MCP-1 (monocyte chemoattractant protein 1, also known as CC chemokine ligand 2, CCL2), IFN-γ (interferon γ), TGF-β ([…]) and Taqman Gene Expression Master Mix according to manufacturer's instructions on the ABI Prism 7500 sequence detection system (Applied Biosystems). Tbp was chosen as the endogenous control due to its low variability and low to medium relative abundance in terms of expression in blood (30). Each measurement was performed in triplicate and results were analyzed using SDS 2.2.1 software (Applied Biosystems). Gene expression was determined using the relative standard curve method normalized to Tbp expression."}, "[5]": {"settings": "literature statement; cited from earlier work"}}, "note": "Entries after “also recorded” stand apart in the source; their conditions may differ."}
{"molecule": "TNF-α", "values": [{"measurement": "Micronuclei formation in normochromatic erythrocytes vs before injection", "setting": "[1]", "result": "minimally yet significantly elevated"}, {"measurement": "Onset of DNA damage to peripheral leukocytes (comet and γ-H2AX)", "setting": "peripheral leukocytes [2]; TNF-α 500 ng/mouse", "result": 1, "unit": "hour post-injection"}, {"measurement": "Time until which DNA damage remained elevated", "setting": "peripheral leukocytes [2]; TNF-α 500 ng/mouse", "result": "approximately 4 hours post-injection"}, {"measurement": "Time of maximum DNA damage to peripheral leukocytes", "setting": "peripheral leukocytes [2]", "result": 1, "unit": "hours post-injection"}, {"measurement": "Time to repair of DNA damage in peripheral leukocytes", "setting": "peripheral leukocytes [2]", "result": "≤ 24", "unit": "hours post-injection"}]}
{"molecule": "dextran sulfate sodium [DSS]", "values": [{"measurement": "Percentage of cells positive for γ-H2AX nuclear foci vs non-treated", "setting": "peripheral leukocytes [3]; after first 7 day acute treatment, p<0.01", "result": "increased dramatically"}, {"measurement": "Percent γ-H2AX positive cells vs non-treated, chronic phase", "setting": "peripheral leukocytes [3]; until end of treatment, p<0.05", "result": "remained elevated over non-treated animals"}, {"measurement": "Cytokine mRNA expression in peripheral blood", "setting": "[4]", "result": "up-regulation of TNF-α, MCP-1 (CCL2), and IFN-γ"}, {"measurement": "Direct mutagenicity/genotoxicity", "setting": "[5]", "result": "not a mutagen nor genotoxic; also recorded: not directly genotoxic"}]}
{"molecule": "B1", "values": [{"measurement": "Time of maximum DNA damage to peripheral leukocytes", "setting": "peripheral leukocytes [2]", "result": 4, "unit": "hours post-injection"}, {"measurement": "Time to repair of DNA damage in peripheral leukocytes", "setting": "peripheral leukocytes [2]", "result": "≤ 24", "unit": "hours post-injection"}]}
